These are literature values, as cited in article PMC7225939.

The Kd is the constant that tells how readily two partners part at equilibrium.

For one data set, the target named is PCNA (Homo sapiens) (UniProt P12004). In words: ITC. Background: In ITC the heat of successive injections is recorded.
The next data set addresses pol ι (Homo sapiens). The data set can be described thus: SPR. A general note: In SPR one partner is held on a chip, and binding of the other changes the refractive index at the surface.
A further data set has as its target pol η (Homo sapiens). The data set can be described thus: SPR.
The target in data set [1] is ZRANB3 (Homo sapiens). In words: ITC.
Target sequence in this assay (Q5FWF4 1058-1079): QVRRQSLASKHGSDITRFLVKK
Data set [2] concerns the target p15 (PAF15) (Homo sapiens) (UniProt Q15004). The data set can be described thus: ITC.
The target of a further data set is p12 (Homo sapiens). The data set can be described thus: ITC.
A further data set deals with p21 (Homo sapiens). The data set can be described thus: ITC.
The next data set deals with UHRF2 (Homo sapiens). The data set can be described thus: ITC.
For a further data set, the target named is FEN1 (Homo sapiens). The data set can be described thus: ITC.
The next data set has as its target PARG (Homo sapiens). The data set can be described thus: ITC.
A further data set addresses DVC1 (Homo sapiens). In words: ITC.
For a further data set, the target named is TRAIP (Homo sapiens). In words: ITC.
Data set [3] has as its target ZRANB3 (Homo sapiens). In words: ITC. This is another data set of the same source.
Target sequence in this assay (Q5FWF4 511-532): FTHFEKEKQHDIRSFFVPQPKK
In a further data set the target is p15PAF (Homo sapiens). In words: ITC.
The target of another data set is DNMT1 (Homo sapiens). In words: ITC.
The next data set has as its target p68 (Homo sapiens). The data set can be described thus: ITC.
For another data set, the target named is RecQ5 (Homo sapiens). In words: NMR.
The next data set addresses Cdt2 (Homo sapiens). The data set can be described thus: FP.
The next data set addresses Cdt1 (Homo sapiens). In words: FP.

Where two headings read alike, the source gives them in different places.

Chain of PCNA (Homo sapiens) (P12004 whole entry): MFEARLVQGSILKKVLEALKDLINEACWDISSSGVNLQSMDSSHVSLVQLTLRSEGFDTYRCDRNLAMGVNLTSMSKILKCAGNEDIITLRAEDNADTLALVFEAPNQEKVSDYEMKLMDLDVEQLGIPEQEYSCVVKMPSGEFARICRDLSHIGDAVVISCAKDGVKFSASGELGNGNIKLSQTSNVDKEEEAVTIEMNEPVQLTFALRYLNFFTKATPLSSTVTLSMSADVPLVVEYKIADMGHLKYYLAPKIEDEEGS
Chain of PCNA (P12004 whole entry): as above
Chain of DNMT1 (Homo sapiens) (P26358 161-180): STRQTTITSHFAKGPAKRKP
Chain of p15 (PAF15) (Homo sapiens) (Q15004 whole entry): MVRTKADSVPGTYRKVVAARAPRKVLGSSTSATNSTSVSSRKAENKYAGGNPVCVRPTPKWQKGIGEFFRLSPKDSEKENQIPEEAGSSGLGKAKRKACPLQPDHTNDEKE
Chain of p15PAF (from UniProt Q15004) (Q15004 whole entry): as above
Chain of p15PAF (Q15004 50-77): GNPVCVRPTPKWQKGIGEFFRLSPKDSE
Chain of p21 (P38936 139-160): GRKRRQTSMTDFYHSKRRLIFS
Chain of TRAIP (Homo sapiens) (Q9BWF2 447-469): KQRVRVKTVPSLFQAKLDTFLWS
Chain of RecQ5 (Homo sapiens) (O94762 952-980): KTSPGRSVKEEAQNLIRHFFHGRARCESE
Chain of pol η (Homo sapiens) (Q9Y253 other isoform, or with tags, fused parts or gaps): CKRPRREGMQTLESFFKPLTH

On to FEN1, for which the dissociation constant Kd in the data set with PCNA (Homo sapiens) is 59.9 µM.

For PCNA (from UniProt P12004), the Kd with pol ι (Homo sapiens) was 0.39 µM; in the data set with pol η (Homo sapiens), 0.4 µM; with ZRANB3 (Homo sapiens) [1], 9.24 µM; in [2], 1.1 µM; with p12 (Homo sapiens), 38 µM; with p21 (Homo sapiens), 0.08 µM. The Kd is 25.7 µM with UHRF2 (Homo sapiens); 59.9 µM with FEN1 (Homo sapiens); 3.3 µM with PARG (Homo sapiens); 15.6 µM with DVC1 (Homo sapiens); 30.7 µM with TRAIP (Homo sapiens); 4.8 µM with ZRANB3 (Homo sapiens) [3]. Besides, the Kd in the data set with p15PAF (Homo sapiens) was 5.56 µM; with DNMT1 (Homo sapiens), 1 µM; with p68 (Homo sapiens), 16 µM; with RecQ5 (Homo sapiens), 210 µM; with Cdt2 (Homo sapiens), 0.057 µM; with Cdt1 (Homo sapiens) it was 7.2 µM.

For the substance ZRANB3, the Kd with PCNA (Homo sapiens) was 4.8 µM.

As to p15PAF, the Kd with PCNA (Homo sapiens) was 5.56 µM.

On to p15PAF (from UniProt Q15004), for which the Kd in the data set with PCNA (Homo sapiens) is 1.1 µM.

With p21, the Kd with PCNA (Homo sapiens) was 0.08 µM.

As for p68 (DNA polymerase delta subunit), in the data set with PCNA (Homo sapiens), the Kd was 16 µM.
